Results reported in the RNAGym collection of RNA variant scans (doi:10.7554/elife.80360).

B1: HDV Ribozyme (parent)
chain: GGCCGGCAUGGUCCCAGCCUCCUCGCUGGCGCCGGCUGGGCAACAUUCCGAGGGGACCGUCCCCUCGGUAAUGGCGAAUGGGACCCA

Variants of: B1
Assay: self-cleavage, relative activity (ratio to wild type); higher = more cleavage; co-transcriptional
Variant GGCCGGCAUGGUCCCAGCCUCCUCGCUGGCGCCGGCUGGGCAACAUUCCGAGGGGGCCGUCCCCUCGGUAAUGGCGAAUGAGACCCA [A56G G81A] has a self-cleavage of 0.665. GGCCUGCAUGGUCCCAGCCUCCUCGCUGGCGCCGGCUGGGAAACAUUCCGAGGGGACCGUCCCCUCGGUAAUGGCGAAUGGGACCCA [G5U C41A] showed a self-cleavage of 0.172. In the case of GGCCGGCAUGGUCCCAGCCUCCUCGCUGGCGCCGGCUGGGCAACAUUCCGAGGGGACCGUCCCCUAGGUACUGGCGAAUGGGACCCA [C66A A71C], the self-cleavage is reported as 0.866. GGCCGGCAUGGUCCCAGCCUCCUCGCUGGCGCCGGCUGGGCACCAUUCCGAGGGGACCGUCCCCUCGGUAAUGUCGAAUGGGACCCA [A43C G74U] showed a self-cleavage of 0.415. In the case of GGCCGGCAUGGUCCCAGCCUCCUCGCUGGCGCCUGCUGGGCAACAUUCCGAGGGGACCGUCCCCUCGGUAGUGGCGAAUGGGACCCA [G34U A71G], the self-cleavage is reported as 0.154. GGCCGGCAUGGUCCCAGCCUCCUCGCUGGCGUCGGCUGGGCAACAUUCCGGGGGGACCGUCCCCUCGGUAAUGGCGAAUGGGACCCA [C32U A51G] gave a self-cleavage of 0.92. Work on GGCCGGCAUGGUCCCAGCCUCCUCGCUGGCGCCGGCUGGGCAACAUUCCGAGGGGACCGUCCGCUCGGUAAUGGGGAAUGGGACCCA [C63G C75G] yielded a self-cleavage of 0.0489. With GGCCGGCAUGGUCCCAGCCUCCUCGCUGGCGCCGGCUGGGGAACAUUCCGAGGGGACCGGCCCCUCGGUAAUGGCGAAUGGGACCCA [C41G U60G] the self-cleavage was 0.72. In the case of GGCCGGCAUGGUCCCUGGCUCCUCGCUGGCGCCGGCUGGGCAACAUUCCGAGGGGACCGUCCCCUCGGUAAUGGCGAAUGGGACCCA [A16U C18G], the self-cleavage is reported as 0.227. With GGCCGGCAUGGUCCCAGCCUCCUCGCUGGCGCCGGCGGGGCAACAUUACGAGGGGACCGUCCCCUCGGUAAUGGCGAAUGGGACCCA [U37G C48A] the self-cleavage was 0.277. GGCCGGCAGGGACCCAGCCUCCUCGCUGGCGCCGGCUGGGCAACAUUCCGAGGGGACCGUCCCCUCGGUAAUGGCGAAUGGGACCCA [U9G U12A] gave a self-cleavage of 1.11. With GGCCGGCAUGGUCCCAGCCUCCUCGCUGGCGCCGGCUGGGCAACAUUCCGAGGGGACCGUCCCCUCGGUAAUGGCGAUUGGGACCGA [A78U C86G] the self-cleavage was 0.163. Work on GGCCGGCAUGGUCCAAGCCUCCUCGCUGGCGCCGGCUGGGCAACAUUCCGAAGGGACCGUCCCCUCGGUAAUGGCGAAUGGGACCCA [C15A G52A] yielded a self-cleavage of 0.708. UGUCGGCAUGGUCCCAGCCUCCUCGCUGGCGCCGGCUGGGCAACAUUCCGAGGGGACCGUCCCCUCGGUAAUGGCGAAUGGGACCCA [G1U C3U] gave a self-cleavage of 0.696. Work on GGCCGGCAUGGUCCCAGCCUCCUCGGUGGCGCCGGCUGGGCAACAUUCCGAGGGGACCGUCCCCACGGUAAUGGCGAAUGGGACCCA [C26G U65A] yielded a self-cleavage of 0.655. Variant GGCCGGCAUGGUCCCAGCCUCCUCGCUGGCGCCGGCUGGGCAACAUUCCGAGGGGACAGGCCCCUCGGUAAUGGCGAAUGGGACCCA [C58A U60G] has a self-cleavage of 0.831. GGCCGGCAUGGUCCCAGCCUCCUCGCUGGCGCCGGCUGGGCAACAUUCCGCGGAGACCGUCCCCUCGGUAAUGGCGAAUGGGACCCA [A51C G54A] showed a self-cleavage of 0.716. GGCCGGCAUGGUCCCAGCCUCCUCGCUGGCGCCGGCUGGGCGACAUUCCGAGGGGACCGUCCCCUCGGUAAUGGCGAAUGGGACCCC [A42G A87C] showed a self-cleavage of 0.521. With GGCCGGGAUGGUCCCAGCCUCCUCGCUGGCGCCGGCUGGGCAACAUUCCGUGGGGACCGUCCCCUCGGUAAUGGCGAAUGGGACCCA [C7G A51U] the self-cleavage was 0.107. Work on GGCCGGCAUGGUCCCAGCCUGCUCGCUGCCGCCGGCUGGGCAACAUUCCGAGGGGACCGUCCCCUCGGUAAUGGCGAAUGGGACCCA [C21G G29C] yielded a self-cleavage of 0.0707. For GGCCGGCAUGGUCCCAGCCUCCUCGCUGUCGCCGGCUGGGCAAGAUUCCGAGGGGACCGUCCCCUCGGUAAUGGCGAAUGGGACCCA [G29U C44G], the self-cleavage was 0.0326. Work on GGCCGGCAUGGUCCCAGCCUCCUAGCUGGCGCCGGCUGGGCAACAUUCCGAGGGGACCGUCCCCUCGGUAAUGGCGUAUGGGACCCA [C24A A77U] yielded a self-cleavage of 0.185. With GGCCGGCAUGGUCCCAGCCUCCUCGCUGGCGCCGGCUGGGCAACAUUCCGAGGGGAGCGUCCCCUCGGUAAUGGCGAUUGGGACCCA [C57G A78U] the self-cleavage was 0.441. With GGCCGGCAUGGUCCCAGCCUCCUCGCUGGCGCCGGCUGGGCAACAUUCCGAGGGGAGCGGCCCCUCGGUAAUGGCGAAUGGGACCCA [C57G U60G] the self-cleavage was 0.95. In the case of GGCCGGCAUGGUCCCAGCCUCCUCGCUGGCGCCGGCUGUGCAACAUUCCGAGGGGACCGUCCCAUCGGUAAUGGCGAAUGGGACCCA [G39U C64A], the self-cleavage is reported as 0.649. GGCCGGCAUUGUCCCAGCCUCCUCGCUGGCGCCGACUGGGCAACAUUCCGAGGGGACCGUCCCCUCGGUAAUGGCGAAUGGGACCCA [G10U G35A] gave a self-cleavage of 0.604. For GGCCGGCAUGGUCCCAGCCUCCUCGUUGGCGCCGGCUGCGCAACAUUCCGAGGGGACCGUCCCCUCGGUAAUGGCGAAUGGGACCCA [C26U G39C], the self-cleavage was 0.475. GGCCGGCAUGGUCCCAGCCUCCUCGCUGGCGCCGGCUGGACAACAUUCCGAGAGGACCGUCCCCUCGGUAAUGGCGAAUGGGACCCA [G40A G53A] gave a self-cleavage of 0.882. GGCCGGCAUGGUCCUAGCCUCCUCGCUGGAGCCGGCUGGGCAACAUUCCGAGGGGACCGUCCCCUCGGUAAUGGCGAAUGGGACCCA [C15U C30A] gave a self-cleavage of 0.567. In the case of GGCCGGCAUGGUCCCAGCCUCCUCGCUGGCGCCGGCUGGGCAACAUUCCCAGGGGACCGUCCCCUCGGUAAGGGCGAAUGGGACCCA [G50C U72G], the self-cleavage is reported as 0.415. Work on GGCCGGCAUGGUCCCAGCCUCCUCGCCGGCGCCGGCUGGGCAACAUUCCGAUGGGACCGUCCCCUCGGUAAUGGCGAAUGGGACCCA [U27C G52U] yielded a self-cleavage of 1.01. Variant GGCCGGCAUGGUCCCAGCCUCCUCGCUGGCGCCGGCUGGGCAACAUUCCCAGGGGACCGUCCCCUCGGUAAUGGCGAAUGGGGCCCA [G50C A83G] has a self-cleavage of 0.491.
